Measurements: patent US20240368663A1, “CELL-FREE BIOPRODUCTION OF B-CRYPTOXANTHIN AND ZEAXANTHIN” (DEBUT BIOTECHNOLOGY, INC., priority 2021, published 2024)

Assays:
[1] = cited from earlier work
[2] = Cell-free conversion of β-carotene to zeaxanthin with cell lysate expressing CrtZ; assay type: biochemical; conditions: 1.67 mM β-carotene, 24 hours
Method: Enzyme Expression and Purification: All genes were synthesized and cloned into expression plasmids and then transformed into E. coli cells for expression. Cells were grown in Terrific Broth media supplemented with 50 μg/mL kanamycin sulfate at 37° C. and 200 rpm until A595=0.6. Cells were cooled to 18° C., protein expression was induced, and the cultures were grown for an additional 18 h. Cell pellets were collected by centrifugation, and then resuspended in a 1.8 mL lysis buffer (50 mM Tris pH 8.5, 150 mM NaCl, 10% Glycerol (v/v)) per gram of cell paste. Cell lysates were prepared by sonication and clarified by centrifugation at 11,000×g for 10 minutes, at 4° C. After clarification, lysate was kept on ice or flash frozen and stored at −80° C. for later use.
Analytical methods: For sampling, 5× volume of THE was mixed with the reaction fluid, followed by high-speed centrifugation. Samples were run on an HPLC system to examine the amount of β-cryptoxanthin and zeaxanthin present in the reaction mixture. The HPLC method was as follows: An Agilent 1200 HPLC was fitted with an Acclaim C-30 Column 250 mm×4.6 mm, 5 μm, equipped with an Acclaim C-30 guard column. The column was heated to 20° C. with the sample block being maintained at 20° C. For each sample, 10 μL was injected and the product was eluted at a flow rate of 1.0 ml/min using Methanol (solvent A) and tert-butyl-methyl ether (solvent B) with the following gradient: 80% A to 65% A for 10 min, 65% A to 10% A for 10 min, 10% A for 5 min, 10% A to 80% for 0.5 min, and 80% A for 5.5 min for column equilibration. The run time was a total of 31 minutes with zeaxanthin eluting at 7.2 mins, β-cryptoxanthin eluting at 12.2 minutes, and β-carotene eluting at 16.9 min. A diode array detector (DAD) was used for the detection of the molecule of interest at 450 nm.
As described herein, β-carotene is hydroxylated by the CrtZ enzyme (CrtZ, EC1.14.15.24) to form β-cryptoxanthin, and then β-cryptoxanthin is hydroxylated by CrtZ to form Zeaxanthin. […]

[3] = 2% polysorbate 20, 6% THE, 0.2 mM FeSO4, 16° C.

In the case of CC1=C(/C=C/C(C)=C/C=C/C(C)=C/C=C/C=C(C)/C=C/C=C(C)/C=C/C2=C(C)CCCC2(C)C)C(C)(C)CCC1 [β-carotene], the solubility in water [1] is given as “insoluble in water”.

For CC1=C(/C=C/C(C)=C/C=C/C(C)=C/C=C/C=C(C)/C=C/C=C(C)/C=C/C2=C(C)C[C@@H](O)CC2(C)C)C(C)(C)CCC1 [β-cryptoxanthin], the solubility in water [1] is listed as “insoluble in water”.

B1: P. ananatis CrtZ: β-carotene hydroxylase enzyme (CrtZ, EC1.14.15.24) from P. ananatis, used as E. coli cell lysate; likely Pantoea WP_013027996.1 (protein, listed as Pantoea sp.)
chain: MLWIWNALIVFVTVIGMEVVAALAHKYIMHGWGWGWHLSHHEPRKGAFEVNDLYAVVFAALSILLIYLGSTGMWPLQWIGAGMTAYGLLYFMVHDGLVHQRWPFRYIPRKGYLKRLYMAHRMHHAVRGKEGCVSFGFLYAPPLSKLQATLRERHGARAGAARDAQGGEDEPASGK
In the case of B1, the “β-carotene substrate converted into zeaxanthin” value ([2]; 2% polysorbate 20 (v/v), 6% THE (v/v), 0.2 mM FeSO4, concentrated cell lysate, 16° C.) is reported as 84 % (molar ratio), the zeaxanthin concentration produced [2, 3] is reported as roughly 1.4 mM and the zeaxanthin titer produced [2, 3] is reported as 796 mg/L.
